Laboratory results as given in article PMC4954977.

Assays:
[1] = molecular target: murine neonatal Fc receptor (FcRn), extracellular domain (murine | not stated) (UniProt Q61559); test: SPR; FcRn extracellular domain immobilised on a CM5 chip (600 RU); Fc fusions injected; McIlvaine's phosphate-citrate buffer pH 6.0 with 0.05% Tween 20, 25 °C, 50 μL/min; Biacore 3000; bivalent analyte model (KD1)
[2] = molecular target: mouse PRYSPRY-domain of TRIM21 (tripartite-motif containing protein 21) (mouse); test: SPR; TRIM21 PRYSPRY-domain immobilised on a CM5 chip (200 RU); Fc fusions injected; HBS-EP pH 7.4 (0.01 M HEPES, 0.15 M NaCl, 3 mM EDTA, 0.05% Tween 20), 25 °C, 50 μL/min; Biacore 3000; bivalent analyte model (KD1)

Chain of UniProt Q61559 (Q61559 whole entry, looked up, the tested form may be a part): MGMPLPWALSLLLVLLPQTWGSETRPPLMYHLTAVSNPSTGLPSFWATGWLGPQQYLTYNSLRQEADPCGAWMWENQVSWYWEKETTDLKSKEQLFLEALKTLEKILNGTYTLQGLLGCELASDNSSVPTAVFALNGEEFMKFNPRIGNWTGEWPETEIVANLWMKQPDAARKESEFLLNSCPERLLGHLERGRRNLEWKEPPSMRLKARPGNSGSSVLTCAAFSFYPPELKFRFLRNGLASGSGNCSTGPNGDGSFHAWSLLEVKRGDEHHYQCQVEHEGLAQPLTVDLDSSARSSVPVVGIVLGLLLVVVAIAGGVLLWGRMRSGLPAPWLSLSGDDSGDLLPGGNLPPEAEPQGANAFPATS

Fc-ARP1 fusion protein (mouse IgG1 Fc fused to the anti-rotavirus VHH ARP1) (Fc fusion)
Kd [1]: 760 nM | Kd [2]: 28 nM
